Assay results as given in article PMC8042453 (The Journal of Biological Chemistry, 2021).
Values belong to the binder of their own block, whether it stands above or below them.

Experiments:
[1] = biological target: T1, Nucleolin construct R1234G (aa 285–710) (human, UniProt P19338 285-710); experiment: flow cytometry on cells
[2] = biological target: T1, Nucleolin construct R1234G (aa 285–710); experiment: co-IP

T1 sequence (P19338 285-710, stated change not applied): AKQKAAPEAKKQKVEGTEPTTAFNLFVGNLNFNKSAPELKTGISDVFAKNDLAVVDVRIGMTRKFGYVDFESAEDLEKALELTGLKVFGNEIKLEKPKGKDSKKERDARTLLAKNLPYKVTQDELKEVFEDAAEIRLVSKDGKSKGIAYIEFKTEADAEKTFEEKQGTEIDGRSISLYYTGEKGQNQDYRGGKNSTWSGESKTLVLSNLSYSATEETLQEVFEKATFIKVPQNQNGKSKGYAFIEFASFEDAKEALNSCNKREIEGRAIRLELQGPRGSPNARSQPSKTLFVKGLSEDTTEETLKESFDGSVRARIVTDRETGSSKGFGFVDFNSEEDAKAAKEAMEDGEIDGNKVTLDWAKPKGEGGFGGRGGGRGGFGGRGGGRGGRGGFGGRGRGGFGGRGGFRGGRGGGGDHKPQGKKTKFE

binding result [1]: binds
B1: GFP-C1QTNF4 (aa 17–329) (ligand)
chain: not shown

binding result [2]: binds
B2: C1QTNF4 (aa 17–329, full-length) (ligand)
chain: not shown
